Data published in patent US20080020978A1 (Amgen, published 2008).
Square brackets hold non-standard residues; d marks the D form. 1Nal = N[C@@H](Cc1cccc2ccccc12)C(=O)O; Tic = O=C(O)[C@@H]1Cc2ccccc2CN1; Cit = NC(=O)NCCC[C@H](N)C(=O)O; Nva = CCC[C@H](N)C(=O)O; Aib = CC(C)(N)C(=O)O

biological target: CGRP1 receptor (CRLR/RAMP1 complex) of human neuroblastoma SK-N-MC cells (human, UniProt Q16602 23-461; O60894 27-148); assay: cell-based or functional assay
Sequence (Q16602 23-461, chain 1 of 2): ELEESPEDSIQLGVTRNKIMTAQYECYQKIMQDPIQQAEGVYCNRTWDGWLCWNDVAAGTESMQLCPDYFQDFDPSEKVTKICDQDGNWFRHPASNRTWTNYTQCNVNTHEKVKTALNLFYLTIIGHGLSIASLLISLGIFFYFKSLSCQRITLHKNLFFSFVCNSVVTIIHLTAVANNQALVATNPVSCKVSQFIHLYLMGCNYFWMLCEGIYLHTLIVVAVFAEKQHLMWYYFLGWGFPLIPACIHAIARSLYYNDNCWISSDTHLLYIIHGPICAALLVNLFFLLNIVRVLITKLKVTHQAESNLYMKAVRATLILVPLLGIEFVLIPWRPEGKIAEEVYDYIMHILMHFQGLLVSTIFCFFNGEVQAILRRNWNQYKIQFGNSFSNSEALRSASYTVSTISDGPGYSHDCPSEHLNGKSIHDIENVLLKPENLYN
Sequence (O60894 27-148, chain 2 of 2): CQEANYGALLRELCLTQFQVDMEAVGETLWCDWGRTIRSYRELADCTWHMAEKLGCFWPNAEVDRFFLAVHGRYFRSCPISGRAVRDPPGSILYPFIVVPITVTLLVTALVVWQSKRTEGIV

Row | Peptide IC50 [nM] | PEG-peptide IC50 [nM] | Binder
1 | 1.6 | – | Ac-[1Nal]VTH[Cit]LAGLLS[Cit]SGGVVRKNFVPTDVGPFAF-NH2 (SMILES CC(=O)N[C@@H](Cc1cccc2ccccc12)C(=O)N[C@H](C(=O)N[C@H](C(=O)N[C@@H](Cc1c[nH]cn1)C(=O)N[C@@H](CCCNC(N)=O)C(=O)N[C@@H](CC(C)C)C(=O)N[C@@H](C)C(=O)NCC(=O)N[C@@H](CC(C)C)C(=O)N[C@@H](CC(C)C)C(=O)N[C@@H](CO)C(=O)N[C@@H](CCCNC(N)=O)C(=O)N[C@@H](CO)C(=O)NCC(=O)NCC(=O)N[C@H](C(=O)N[C@H](C(=O)N[C@@H](CCCNC(=N)N)C(=O)N[C@@H](CCCCN)C(=O)N[C@@H](CC(N)=O)C(=O)N[C@@H](Cc1ccccc1)C(=O)N[C@H](C(=O)N1CCC[C@H]1C(=O)N[C@H](C(=O)N[C@@H](CC(=O)O)C(=O)N[C@H](C(=O)NCC(=O)N1CCC[C@H]1C(=O)N[C@@H](Cc1ccccc1)C(=O)N[C@@H](C)C(=O)N[C@@H](Cc1ccccc1)C(N)=O)C(C)C)[C@@H](C)O)C(C)C)C(C)C)C(C)C)[C@@H](C)O)C(C)C) [SEQ ID NO 872]
2 | 16.1 | – | Ac-WVTH[Cit]LAGLAS[Cit]SGGVVRKNFVPTDVGPFAF-NH2 [SEQ ID NO 870]
3 | – | 11 | Ac-[1Nal]VTH[Cit]LAGLLS[Cit]SGGVVRKNFVPTDVGPFAF-NH2 (also: PEG-conjugated, in most cases at Lys25) [PEG-peptide of SEQ ID NO 872]
4 | 4.2 | – | Ac-WVTHRLAGLLSRSGGVVRKNFV[Aib]TDVGPFAF-NH2 (SMILES CC(=O)N[C@@H](Cc1c[nH]c2ccccc12)C(=O)N[C@H](C(=O)N[C@H](C(=O)N[C@@H](Cc1c[nH]cn1)C(=O)N[C@@H](CCCNC(=N)N)C(=O)N[C@@H](CC(C)C)C(=O)N[C@@H](C)C(=O)NCC(=O)N[C@@H](CC(C)C)C(=O)N[C@@H](CC(C)C)C(=O)N[C@@H](CO)C(=O)N[C@@H](CCCNC(=N)N)C(=O)N[C@@H](CO)C(=O)NCC(=O)NCC(=O)N[C@H](C(=O)N[C@H](C(=O)N[C@@H](CCCNC(=N)N)C(=O)N[C@@H](CCCCN)C(=O)N[C@@H](CC(N)=O)C(=O)N[C@@H](Cc1ccccc1)C(=O)N[C@H](C(=O)NC(C)(C)C(=O)N[C@H](C(=O)N[C@@H](CC(=O)O)C(=O)N[C@H](C(=O)NCC(=O)N1CCC[C@H]1C(=O)N[C@@H](Cc1ccccc1)C(=O)N[C@@H](C)C(=O)N[C@@H](Cc1ccccc1)C(N)=O)C(C)C)[C@@H](C)O)C(C)C)C(C)C)C(C)C)[C@@H](C)O)C(C)C) [SEQ ID NO 879]
5 | 6.19 | – | Ac-WVTH[Cit]LAGLASRPGGVVRKNFVPTDVGPFAF-NH2 (SMILES CC(=O)N[C@@H](Cc1c[nH]c2ccccc12)C(=O)N[C@H](C(=O)N[C@H](C(=O)N[C@@H](Cc1c[nH]cn1)C(=O)N[C@@H](CCCNC(N)=O)C(=O)N[C@@H](CC(C)C)C(=O)N[C@@H](C)C(=O)NCC(=O)N[C@@H](CC(C)C)C(=O)N[C@@H](C)C(=O)N[C@@H](CO)C(=O)N[C@@H](CCCNC(=N)N)C(=O)N1CCC[C@H]1C(=O)NCC(=O)NCC(=O)N[C@H](C(=O)N[C@H](C(=O)N[C@@H](CCCNC(=N)N)C(=O)N[C@@H](CCCCN)C(=O)N[C@@H](CC(N)=O)C(=O)N[C@@H](Cc1ccccc1)C(=O)N[C@H](C(=O)N1CCC[C@H]1C(=O)N[C@H](C(=O)N[C@@H](CC(=O)O)C(=O)N[C@H](C(=O)NCC(=O)N1CCC[C@H]1C(=O)N[C@@H](Cc1ccccc1)C(=O)N[C@@H](C)C(=O)N[C@@H](Cc1ccccc1)C(N)=O)C(C)C)[C@@H](C)O)C(C)C)C(C)C)C(C)C)[C@@H](C)O)C(C)C) [SEQ ID NO 869]
6 | – | > 1000 | Ac-WVTH[Cit]LAGLAS[Cit]SGGVVRKNFVPTDVGPFAF-NH2 (also: PEG-conjugated, in most cases at Lys25) [PEG-peptide of SEQ ID NO 870]
7 | 2.33 | – | Ac-WVTHRLAGLLSRSGGVVRKNFV[Tic]TDVGPFAF-NH2 (SMILES CC(=O)N[C@@H](Cc1c[nH]c2ccccc12)C(=O)N[C@H](C(=O)N[C@H](C(=O)N[C@@H](Cc1c[nH]cn1)C(=O)N[C@@H](CCCNC(=N)N)C(=O)N[C@@H](CC(C)C)C(=O)N[C@@H](C)C(=O)NCC(=O)N[C@@H](CC(C)C)C(=O)N[C@@H](CC(C)C)C(=O)N[C@@H](CO)C(=O)N[C@@H](CCCNC(=N)N)C(=O)N[C@@H](CO)C(=O)NCC(=O)NCC(=O)N[C@H](C(=O)N[C@H](C(=O)N[C@@H](CCCNC(=N)N)C(=O)N[C@@H](CCCCN)C(=O)N[C@@H](CC(N)=O)C(=O)N[C@@H](Cc1ccccc1)C(=O)N[C@H](C(=O)N1Cc2ccccc2C[C@H]1C(=O)N[C@H](C(=O)N[C@@H](CC(=O)O)C(=O)N[C@H](C(=O)NCC(=O)N1CCC[C@H]1C(=O)N[C@@H](Cc1ccccc1)C(=O)N[C@@H](C)C(=O)N[C@@H](Cc1ccccc1)C(N)=O)C(C)C)[C@@H](C)O)C(C)C)C(C)C)C(C)C)[C@@H](C)O)C(C)C) [SEQ ID NO 876]
8 | – | 565 | Ac-WVTH[Cit]LAGLASRPGGVVRKNFVPTDVGPFAF-NH2 (also: PEG-conjugated, in most cases at Lys25) [PEG-peptide of SEQ ID NO 869]
9 | – | 108 | Ac-WVTH[Cit]LAGLLSRPGGVVRKNFVPTDVGPFAF-NH2 (also: PEG-conjugated, in most cases at Lys25) [PEG-peptide of SEQ ID NO 868]
10 | 0.58 | – | WVTHRLAGLLSXSGGVVRKNFVPTDVGPFAF (Ac-WVTHRLAGLLS[Cit]SGGVVRKNFVPTDVGPFAF-NH2) [SEQ ID NO 862]
11 | – | 2.06 | WVTHXLAGLLSXSGGVVXKNFVPTDVGPFAF (Ac-WVTH[Cit]LAGLLS[hArg]SGGVV[hArg]KNFVPTDVGPFAF-NH2; PEG-conjugated (Table 2C: in most cases at Lys^25)) [PEG-peptide of SEQ ID NO 880]
12 | – | 0.36 | WVTHXLAGLLSRSGGVVRKNFVPTDVGPFAF (Ac-WVTH[hArg]LAGLLSRSGGVVRKNFVPTDVGPFAF-NH2; PEG-conjugated (Table 2C: in most cases at Lys^25)) [PEG-peptide of SEQ ID NO 865]
13 | 2.1 | – | WVTHXLAGLLSXSGGVVRKNFVPTDVGPFAF (Ac-WVTH[hArg]LAGLLS[hArg]SGGVVRKNFVPTDVGPFAF-NH2) [SEQ ID NO 866]
14 | – | 0.37 | WVTHXLAGLLSXSGGVVRKNFVPTDVGPFAF (Ac-WVTH[hArg]LAGLLS[hArg]SGGVVRKNFVPTDVGPFAF-NH2; PEG-conjugated (Table 2C: in most cases at Lys^25)) [PEG-peptide of SEQ ID NO 866]
15 | 0.44 | – | WVTHXLAGLLSRSGGVVRKNFVPTDVGPFAF (Ac-WVTH[hArg]LAGLLSRSGGVVRKNFVPTDVGPFAF-NH2) [SEQ ID NO 865]
16 | 1.63 | – | WVTHXLAGLLSXSGGVVRKNFVPTDVGPFAF (Ac-WVTH[NMeArg]LAGLLS[NMeArg]SGGVVRKNFVPTDVGPFAF-NH2) [SEQ ID NO 875]
17 | 0.41 | – | WVTHXLAGLLSXSGGVVXKNFVPTDVGPFAF (Ac-WVTH[Cit]LAGLLS[Cit]SGGVV[hArg]KNFVPTDVGPFAF-NH2) [SEQ ID NO 871]
18 | 1.81 | – | WVTHXLAGLLSXSGGVVRKNFVXTDVGPFAF (Ac-WVTH[Cit]LAGLLS[Cit]SGGVVRKNFV[Hyp]TDVGPFAF-NH2) [SEQ ID NO 877]
19 | – | 0.33 | WVTHRLAGLLSXSGGVVRKNFVPTDVGPFAF (Ac-WVTHRLAGLLS[hArg]SGGVVRKNFVPTDVGPFAF-NH2; PEG-conjugated (Table 2C: in most cases at Lys^25)) [PEG-peptide of SEQ ID NO 864]
20 | – | 208 | WVTHRXAGLLSRXGGVVRKNFVPTDVGPFAF (Ac-WVTHR[NMeLeu]AGLLSR[NMeSer]GGVVRKNFVPTDVGPFAF-NH2; PEG-conjugated (Table 2C: in most cases at Lys^25)) [PEG-peptide of SEQ ID NO 874]
21 | – | 3.22 | WVTHXLAGLLSXSGGVVXKNFVPTDVGPFAF (Ac-WVTH[Cit]LAGLLS[Cit]SGGVV[hArg]KNFVPTDVGPFAF-NH2; PEG-conjugated (Table 2C: in most cases at Lys^25)) [PEG-peptide of SEQ ID NO 871]
22 | 0.57 | – | WVTHRLAGLLSXSGGVVRKNFVPTDVGPFAF (Ac-WVTHRLAGLLS[hArg]SGGVVRKNFVPTDVGPFAF-NH2) [SEQ ID NO 864]
23 | 2.92 | – | WVTHRXAGLLSRXGGVVRKNFVPTDVGPFAF (Ac-WVTHR[NMeLeu]AGLLSR[NMeSer]GGVVRKNFVPTDVGPFAF-NH2) [SEQ ID NO 874]
24 | – | 0.96 | WVTHRLAGLLSXSGGVVRKNFVPTDVGPFAF (Ac-WVTHRLAGLLS[Cit]SGGVVRKNFVPTDVGPFAF-NH2; PEG-conjugated (Table 2C: in most cases at Lys^25)) [PEG-peptide of SEQ ID NO 862]
25 | 63 | – | Ac-WVTH[Cit][Nva]AG[Nva][Nva]T[Cit]SGGVVRKNFVPTDVGPFAF-NH2 (SMILES CCC[C@H](NC(=O)CNC(=O)[C@H](C)NC(=O)[C@H](CCC)NC(=O)[C@H](CCCNC(N)=O)NC(=O)[C@H](Cc1c[nH]cn1)NC(=O)[C@@H](NC(=O)[C@@H](NC(=O)[C@H](Cc1c[nH]c2ccccc12)NC(C)=O)C(C)C)[C@@H](C)O)C(=O)N[C@@H](CCC)C(=O)N[C@H](C(=O)N[C@@H](CCCNC(N)=O)C(=O)N[C@@H](CO)C(=O)NCC(=O)NCC(=O)N[C@H](C(=O)N[C@H](C(=O)N[C@@H](CCCNC(=N)N)C(=O)N[C@@H](CCCCN)C(=O)N[C@@H](CC(N)=O)C(=O)N[C@@H](Cc1ccccc1)C(=O)N[C@H](C(=O)N1CCC[C@H]1C(=O)N[C@H](C(=O)N[C@@H](CC(=O)O)C(=O)N[C@H](C(=O)NCC(=O)N1CCC[C@H]1C(=O)N[C@@H](Cc1ccccc1)C(=O)N[C@@H](C)C(=O)N[C@@H](Cc1ccccc1)C(N)=O)C(C)C)[C@@H](C)O)C(C)C)C(C)C)C(C)C)[C@@H](C)O) [SEQ ID NO 873]
26 | 3 | – | Ac-WVTH[Cit]LAGLLSRPGGVVRKNFVPTDVGPFAF-NH2 (SMILES CC(=O)N[C@@H](Cc1c[nH]c2ccccc12)C(=O)N[C@H](C(=O)N[C@H](C(=O)N[C@@H](Cc1c[nH]cn1)C(=O)N[C@@H](CCCNC(N)=O)C(=O)N[C@@H](CC(C)C)C(=O)N[C@@H](C)C(=O)NCC(=O)N[C@@H](CC(C)C)C(=O)N[C@@H](CC(C)C)C(=O)N[C@@H](CO)C(=O)N[C@@H](CCCNC(=N)N)C(=O)N1CCC[C@H]1C(=O)NCC(=O)NCC(=O)N[C@H](C(=O)N[C@H](C(=O)N[C@@H](CCCNC(=N)N)C(=O)N[C@@H](CCCCN)C(=O)N[C@@H](CC(N)=O)C(=O)N[C@@H](Cc1ccccc1)C(=O)N[C@H](C(=O)N1CCC[C@H]1C(=O)N[C@H](C(=O)N[C@@H](CC(=O)O)C(=O)N[C@H](C(=O)NCC(=O)N1CCC[C@H]1C(=O)N[C@@H](Cc1ccccc1)C(=O)N[C@@H](C)C(=O)N[C@@H](Cc1ccccc1)C(N)=O)C(C)C)[C@@H](C)O)C(C)C)C(C)C)C(C)C)[C@@H](C)O)C(C)C) [SEQ ID NO 868]
